One molecule from article PMC7291361 (ACS infectious diseases, 2020) can be followed below.

This experiment addresses H1 SI-06 HA FLsE (Influenza A virus A/Solomon …, UniProt A7UPX0, strain). The experiment in a line: ELISA. In general terms: ELISA stands for enzyme-linked immunosorbent assay.

B1: K03.12 IgG (antibody, V domains shown)
VH: QVQLVQSGAEVKKPGASVKVSCKTSGYTFTAYYLHWVRQAPGQGFEWMAWINPNTGDTNYAQKFQGRVTLSRDTSITTAYMELTRLRSDDTAVYYCAKDLTLMYVFDSGWARGAHDYYGMDVWGQGTTVAVSG
VL: PSALTQPASVSGSPGQSVTISCTGTNSDVGTFDLVSWYQQYPGKAPKLIIYEGSRRPSGVSDRFSGSKSGNTASLTISGLQAEDEADYYCSSYAGSVVFGGGTKLTVL
Take B1: the binding result was “binds”.
